Measurements as given in the supplement of paper PMC9112550, “Optimization of the antimicrobial peptide Bac7 by deep mutational scanning” (BMC Biology, 2022).

system: Escherichia coli TOP10; test: shrunken log2 fold change of peptide-encoding DNA abundance (4.5 h post-induction vs induction); higher = less antimicrobial activity (less host growth inhibition); conditions: time post-induction: 4.5 h; library: site-saturation at positions 5, 18, 19, 20
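Further: peptides expressed intracellularly from a pBAD plasmid library in pooled LB shake-flask culture, induced with 0.3% L-arabinose, DNA abundance read by NGS, three biological replicates, DESeq2 with apeglm shrinkage.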

| Sequence | shrunken log2 fold change |
| --- | --- |
| RRIRYRPPRLPRPRPRPDYDPRP | -0.476 |
| RRIRGRPPRLPRPRPRPVKAPRP | 0.659 |
| RRIRSRPPRLPRPRPRPRKQPRP | 0.248 |
| RRIRLRPPRLPRPRPRPTNCPRP | -0.0927 |
| RRIRMRPPRLPRPRPRPNAKPRP | 0.225 |
| RRIRRRPPRLPRPRPRPISTPRP | -0.0842 |
| RRIRMRPPRLPRPRPRPFLHPRP | -0.0137 |
| RRIRLRPPRLPRPRPRPNPVPRP | 0.0363 |
| RRIRRRPPRLPRPRPRPQGYPRP | -0.0842 |
| RRIRCRPPRLPRPRPRPMIWPRP | -0.0837 |
| RRIRERPPRLPRPRPRPRLDPRP | 0.0479 |
| RRIRDRPPRLPRPRPRPPAHPRP | 0.56 |
| RRIRRRPPRLPRPRPRPILMPRP | -0.00531 |
| RRIRSRPPRLPRPRPRPRDSPRP | -0.158 |
| RRIRYRPPRLPRPRPRPAKFPRP | -0.331 |
| RRIRHRPPRLPRPRPRPTINPRP | -0.459 |
| RRIRDRPPRLPRPRPRPERGPRP | 0.689 |
| RRIRFRPPRLPRPRPRPEELPRP | 0.0201 |
| RRIRKRPPRLPRPRPRPWCNPRP | -0.204 |
| RRIRKRPPRLPRPRPRPRLSPRP | 0.0586 |
| RRIRNRPPRLPRPRPRPRLYPRP | -0.142 |
| RRIRVRPPRLPRPRPRPCKKPRP | -0.433 |

| Sequence | shrunken log2 fold change |
| --- | --- |
| RRIRMRPPRLPRPRPRPWEDPRP | -0.0122 |
| RRIRKRPPRLPRPRPRPHTYPRP | -0.101 |
| RRIRRRPPRLPRPRPRPYNYPRP | -0.501 |
| RRIRDRPPRLPRPRPRPRQWPRP | 0.36 |
| RRIRQRPPRLPRPRPRPNQVPRP | -0.0722 |
| RRIRFRPPRLPRPRPRPELIPRP | -0.308 |
| RRIRPRPPRLPRPRPRPMFWPRP | -0.0858 |
| RRIRCRPPRLPRPRPRPFMSPRP | 0.0579 |
| RRIRNRPPRLPRPRPRPREHPRP | 0.0287 |
| RRIRWRPPRLPRPRPRPQEMPRP | -0.0845 |
| RRIRLRPPRLPRPRPRPMWKPRP | -0.0297 |
| RRIRQRPPRLPRPRPRPNMHPRP | -0.34 |
| RRIRRRPPRLPRPRPRPEHWPRP | 0.315 |
| RRIRKRPPRLPRPRPRPCEMPRP | 0.0303 |
| RRIRFRPPRLPRPRPRPQFRPRP | -0.174 |
| RRIRRRPPRLPRPRPRPTLMPRP | 0.581 |
| RRIRERPPRLPRPRPRPESKPRP | -0.145 |
| RRIRYRPPRLPRPRPRPQRNPRP | -0.758 |
| RRIRPRPPRLPRPRPRPSEDPRP | 0.485 |
| RRIRARPPRLPRPRPRPARIPRP | 0.169 |
| RRIRARPPRLPRPRPRPWQRPRP | 0.000557 |
| RRIRARPPRLPRPRPRPWQAPRP | -0.0548 |

| Sequence | shrunken log2 fold change |
| --- | --- |
| RRIRQRPPRLPRPRPRPGQWPRP | 0.00718 |
| RRIRVRPPRLPRPRPRPDIHPRP | -0.427 |
| RRIRTRPPRLPRPRPRPDDFPRP | 0.0516 |
| RRIRCRPPRLPRPRPRPIGEPRP | -0.0453 |
| RRIRQRPPRLPRPRPRPGPMPRP | 0.261 |
| RRIRQRPPRLPRPRPRPLGPPRP | 0.23 |
| RRIRKRPPRLPRPRPRPWLKPRP | 0.0705 |
| RRIRIRPPRLPRPRPRPPGKPRP | 0.324 |
| RRIRKRPPRLPRPRPRPHRQPRP | 0.277 |
| RRIRIRPPRLPRPRPRPPQKPRP | 0.0534 |
| RRIRVRPPRLPRPRPRPNDTPRP | -0.228 |
| RRIRPRPPRLPRPRPRPDKSPRP | -0.442 |
| RRIRWRPPRLPRPRPRPALFPRP | 0.496 |
| RRIRQRPPRLPRPRPRPARGPRP | 0.126 |
| RRIRFRPPRLPRPRPRPKVFPRP | 0.0358 |
| RRIRERPPRLPRPRPRPRQDPRP | -0.0529 |
| RRIRHRPPRLPRPRPRPAWSPRP | -0.0185 |
| RRIRRRPPRLPRPRPRPASDPRP | -0.0475 |
| RRIRKRPPRLPRPRPRPGEPPRP | 0.305 |
| RRIRGRPPRLPRPRPRPRTYPRP | 0.0193 |
| RRIRNRPPRLPRPRPRPIQHPRP | -0.0743 |
| RRIRARPPRLPRPRPRPPENPRP | 0.576 |

| Sequence | shrunken log2 fold change |
| --- | --- |
| RRIRTRPPRLPRPRPRPKMKPRP | -0.554 |
| RRIRFRPPRLPRPRPRPPWQPRP | 0.361 |
| RRIRERPPRLPRPRPRPHFGPRP | -0.0492 |
| RRIRCRPPRLPRPRPRPMWKPRP | -0.0547 |
| RRIRERPPRLPRPRPRPQCFPRP | -0.702 |
| RRIRARPPRLPRPRPRPMCAPRP | 0.813 |
| RRIRPRPPRLPRPRPRPIFTPRP | -0.0736 |
| RRIRHRPPRLPRPRPRPPLPPRP | 0.476 |
| RRIRSRPPRLPRPRPRPPPKPRP | 0.708 |
| RRIRVRPPRLPRPRPRPMTPPRP | 0.452 |
| RRIRLRPPRLPRPRPRPTYLPRP | -0.0138 |
| RRIRERPPRLPRPRPRPPVQPRP | -0.122 |
| RRIRSRPPRLPRPRPRPIGFPRP | -0.0486 |
| RRIRKRPPRLPRPRPRPAYSPRP | -0.0338 |
| RRIRDRPPRLPRPRPRPYNPPRP | -0.309 |
| RRIRPRPPRLPRPRPRPWKRPRP | -0.0317 |
| RRIRLRPPRLPRPRPRPSGVPRP | -0.0863 |
| RRIRVRPPRLPRPRPRPCRSPRP | 0.00156 |
| RRIRRRPPRLPRPRPRPDNAPRP | -0.227 |
| RRIRLRPPRLPRPRPRPEMIPRP | 0.0183 |
| RRIRMRPPRLPRPRPRPRDIPRP | -0.0288 |
| RRIRIRPPRLPRPRPRPSQDPRP | -0.31 |

| Sequence | shrunken log2 fold change |
| --- | --- |
| RRIRARPPRLPRPRPRPNFAPRP | 0.467 |
| RRIRYRPPRLPRPRPRPHMKPRP | -0.489 |
| RRIRQRPPRLPRPRPRPKKMPRP | -0.108 |
| RRIRFRPPRLPRPRPRPPLAPRP | 0.628 |
| RRIRPRPPRLPRPRPRPNGTPRP | 0.247 |
| RRIRQRPPRLPRPRPRPQLEPRP | 0.307 |
| RRIRWRPPRLPRPRPRPWRWPRP | 0.0969 |
| RRIRARPPRLPRPRPRPPEPPRP | 0.686 |
| RRIRKRPPRLPRPRPRPWQDPRP | -0.0361 |
| RRIRDRPPRLPRPRPRPWTGPRP | -0.118 |
| RRIRDRPPRLPRPRPRPSTGPRP | -0.313 |
| RRIRFRPPRLPRPRPRPKDTPRP | 0.0365 |
| RRIRLRPPRLPRPRPRPQWNPRP | -0.289 |
| RRIRLRPPRLPRPRPRPKHYPRP | -0.406 |
| RRIRNRPPRLPRPRPRPPCMPRP | -0.0283 |
| RRIRCRPPRLPRPRPRPPIYPRP | -0.253 |
| RRIRMRPPRLPRPRPRPVHEPRP | -0.232 |
| RRIRFRPPRLPRPRPRPEDDPRP | -0.18 |
| RRIRDRPPRLPRPRPRPIMRPRP | 0.225 |
| RRIRVRPPRLPRPRPRPIFDPRP | -0.0222 |
| RRIRSRPPRLPRPRPRPDDMPRP | 0.0939 |
